From the supplement of paper PMC9170038

System: K4 kissing-loop RNA reporter
Assay: apparent KD of K4 kissing-loop reporter; higher = weaker reporter binding
Conditions: Eterna round: R107; input ligand: theophylline 20 uM
Procedure: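 RNA-MaP round R107: designed RNA switches with theophylline, tryptophan, arginine or FMN aptamers are transcribed on-chip within common flanks. They are titrated with a labelled K4 kissing-loop RNA reporter in RNA-MaP buffer (100 mM Tris pH 7.5, 80 mM KCl, 4 mM MgCl2), without ligand or with the indicated ligand. Median apparent KD per design.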
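Further: bound reporter read as fluorescence of individual clusters on recovered sequencing chips by microscopy, with normalized cluster intensities fitted with a binding model.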

Compared with “AGAACUGUCUGAGAUACCAGCCGAGGAGUGAUGUUCCGGCUCGACGAAACGUCGAGCCACGGCCCUUGGCAGCUCAGACAGUUCA [Omei KL Theo B SS A v1]”, “UCGCGUCUGCGAGGAUAUCGGAUUAGAGUGAUGUUCUAUAAACGCCCAGUGAUGUUGGAUGCGAUACGAGAAGGCGCUGGGCGCA [Same State FMN B GF8]” is 3.3-fold lower in “apparent KD of K4 kissing-loop reporter” value: 1060 nM for the first, 321 nM for the second.

First: AUCGGGAAUACGGCCGCCACUAUAGAGGCGACUACAUACCACCACAGUGAUGUUGUGCUGACCAGUAGGACCGGGUAAAAUCGAU [theeternabot_exclusion_KL_Trp_B_49]
Second: GACAUACCUAUGGAGGGCCGAUCGAACAAACGAGGACCGGUACGGCCGCCACUCGUGGGCAGUGAUGUUGACCCUGGGAGGUAAG
The “apparent KD of K4 kissing-loop reporter” value of the first is 3.1-fold higher: 726 nM for the first, 236 nM for the second.

Compared with “AUAAAUAAUAAUGACUGAGAGUUUGGUGAGCGAGGACCGGUACGGCCGCCACUCGUACAUGAGUGAUGUUCUUGUAUGAGUCAGA [KL-XTryp-A6 #analogue]”, “UGUCAUUGGUCGGCCGCCACUUCAAAGAGAGUGAUGUUCUUAAAGACGGAUCGAAAGAUCUGUCGAAGGACCGGGACCGAUGACU [TrypBS 17 #SwitchBubble #StaticStem]” is 12-fold higher in “apparent KD of K4 kissing-loop reporter” value: 97.6 nM for the first, 1200 nM for the second.

First: CGCAGUGAUGUUGCGAGUUAAUUCAGGGAAGGAGCGCCACAGAUGGCAGGUAGGUCGCCCACGCAGUGAUGUUGCGUAUUCGGGU [Exclusion Arginine A GF 4]
Second: AUAGGCAUAGCCCGAGUGAUGUUCGACGAUACCAGCCUCGAUAGAGGCCCUUGGCAGCGUAAAUGAUCAUGAAGCCAAGGAAUAA [whbob_Ex_Theo_A_th69]
The “apparent KD of K4 kissing-loop reporter” value of the first is 3.2-fold lower: 111 nM for the first, 353 nM for the second.

Same assay, conditions: Eterna round: R107; input ligand: tryptophan 2.4 mM

Compared with “CCGCCAUCAUCAGAUACCAGGCUGAUGGCGGUAACCGCCAAGCGAGUGAUGUUCGCAUCAGUCCCUUGGCAGCUGAUGAAGACUG [#15 K4 Theophylline B Same State]”, “GAGGUUUACGUAGGAUAUCGGUAAUGAGUAGAUGGAGUGAUGUUCCGAAAUUGAAUAGGAGAUGGGCGAGAAGGGCGGAUUAAGC [whbob_SS_FMNB__2th204]” is 1.6-fold lower in “apparent KD of K4 kissing-loop reporter” value: 95.2 nM for the first, 58.1 nM for the second.

“GCCGUAGAUUGAAGGAGCGGUAUGGGCGGUGGCUGAGUGAUGUUCAGGAAAAGUGGCUUCUACCAGGUAGGUCGCAAUCUACGGC” and “ACACUUUACGUAGGAUAUGCGACGAGUGAUGUUCGUCAGGCGGCUUUAGAUUAAACAAGCCGCCUAGCAGAAGGACGGGCAGUGU [Zaorleon]” are within 1.5-fold of each other in “apparent KD of K4 kissing-loop reporter” value: 113 nM for the first, 144 nM for the second.

First: UCUGCUGUAUAUGAUACCAGCAGUGAGAGACAGGAAGUAUAGUGAUGUUAUAUGAGAGAAUGCCCUUGGCAGCGUGUGCGGGUGG [SSTheophylB.Y]
Second: AAGUGUGUGGCGGCCGCCACUAGUAUCCAGUGAUGUUGGAGAUAUCACGUAAGUGAUAUCCUACAUAGGACCGGGCCAUAUAGAA [Same State - Tryptophan B (Freestyle 20)]
The “apparent KD of K4 kissing-loop reporter” value of the first is 7.7-fold lower: 66.2 nM for the first, 510 nM for the second.

Going from “AACGUUUUGUGAAGGAGCGCGAUAAGCAGUGAUGUUGCUUACUAUCAAUUUAUAUUUUACACGCAGGUAGGUCGCACAAUACGUA [JR_SSArginiB_Sub018]” to “AAAGUUGAUGAGUUGGGUAUGUGUUCCGAAGGAGCGAGAUUUAUCUCAGGUAGGUCGCGGAACUUGAGUGAUGUUCAUGUAUAAA [KL-XArg-A9 #analogue]”, the “apparent KD of K4 kissing-loop reporter” value rises from 163 nM to 305 nM (1.9-fold).

Compared with “AAACAUUGGUCUGAUACCAGCUUGAUCGGAAAACGAUCUGCUGGAGUGAUGUUCCAAUAAAGCCCUUGGCAGCAGACCGAUGAAA [MAT - Same State Theophlline B - Mod of Eli - D13]”, “UGGCAGGUAUCGGCCGCCACUUUCUAGUACAUACGCAUAUCUUUACCAUCAGUGAUGUUGAUCAUAAGGACCGGGAUACAUCAGG [theeternabot_exclusion_KL_Trp_B_22]” is 3.6-fold lower in “apparent KD of K4 kissing-loop reporter” value: 722 nM for the first, 200 nM for the second.

“UGUCAUUGGUCUGAUACCAGUUAGACCGAUAAGGUCAAAACUGGAGUGAUGUUCCCAAAUAACCCUUGGCAGCAGACCGAUGACU [TheoBS 5 #SwitchBubble #StaticStem]” and “AGGUUUUGAUUAGGAUAUGCAUUGACGAUGAGAAUAUAGUGAUGUUAUAUACUACGAAUUAGUAAAGUAGAAGGGAUUGAGGUUU [SSFMNB.aA]” are the same in “apparent KD of K4 kissing-loop reporter” value: 241 nM for the first, 241 nM for the second.

“AAGAAGGUCAAAGACCUUCGUGCACGUGAUACCAGUCGCGAAAGCGACCCUUGGCAGCACGGCAGUGAUGUUGCCAAGUGCACAA [#12 K4 Theophylline A Same State]” and “UAAUCCUAGUGAUACUUAUCAAGUGGUGGGCGAGGACCGGUACGGCCGCCACUCGAAUAUGCAGUGAUGUUGUAAUCCGGAUAAU [Exclusion - Tryptophan A (Freestyle 8)]” are within 1.5-fold of each other in “apparent KD of K4 kissing-loop reporter” value: 545 nM for the first, 397 nM for the second.

“GAUAAUAGCACGGCCGCCACUGAAAAGCCGUGCUAUACGAGUGAUGUUCGUAAUUAUACGGGAUUCAGGACCGGGUGCAACGGUA [Tryp B SS t1]” and “AAUGCAUAGUGAAGGAGCGCGAUAAGCAGUGAUGUUGCUUAGCUAUUAUUCAUUAUUUUAACGCAGGUAGGUCGCACUUUGCAUA [JR_ExcArginiB_Sub015]” are within 1.5-fold of each other in “apparent KD of K4 kissing-loop reporter” value: 98.1 nM for the first, 128 nM for the second.

First: UCCAGCAGUACUGAUACCAGACUGCAUGUAGUGAUGUUGCAUAAGGGCAUAGAUGUCUCAGUCCCUUGGCAGCAGUACUGUUGCA [Theo B SS t1]
Second: UGACUGGACUGAAGGAGCGUUCAGGUAGGUCGCUAUGGAGUGAUGUUCCAUAGAAGGAGCGAACAGGUAGGUCGCAGUCUAGUCU [ArgBS 30 #DoubleAptamer #SwitchBubble]
The “apparent KD of K4 kissing-loop reporter” value of the first is 2.1-fold higher: 257 nM for the first, 120 nM for the second.

Going from “AAUCUCCUAGUGAUGUUAGGUUUAAGGGAAGGAGCGAGGUAAUACUCAGGUAGGUCGCCCACAUGCAUUAAUAAAUCAAUUUAAU” to “UGUCAUUGGUCUGAUACCAGCUGAUCGGAAACGAUCAUGCUGGAGUGAUGUUCCAGGAAAAGCCCUUGGCAGCAGACCGAUGACU [TheoBS 11 #SwitchBubble #StaticStem]”, the “apparent KD of K4 kissing-loop reporter” value rises from 84.2 nM to 195 nM (2.3-fold).

“AAUGUGCAGGGAAGGAGCGUAGUCCAGUGCUGUUGGAGUUAGAUACCAGUGAUGUUGGUUAUACAGGUAGGUCGCCCUAGAGCGC [whbob_Ex_Arginine_B_2th162]” and “GGAUAGGAUAGAGGAUAUGGAUUAGGCAAGAAUAACUUGUCAUGUAAAUCCAUGAGGAGUGAUGUUCCAGAAGGCUGUCCUAUCG [MatMod 7 - Jieux - Exclusion - FMN B]” are within 1.5-fold of each other in “apparent KD of K4 kissing-loop reporter” value: 96.3 nM for the first, 90.7 nM for the second.

“AUCUCGGUAUCAGAUACCAGACUAUCGAUACCGAGUGUAUCGGGUAGUGAUGUUACCAUAGUCCCUUGGCAGCUGGUAGUUCAUA [Theo B SS t9c]” and “CCGAAGAACCAGUGAUGUUGGUUGACUAGACAGGAUAUGAGCAACAUCAGAAGGGUCUGGCUUCGGGAGUGGGUCGCGCUGACCU [Geeredin]” are within 1.5-fold of each other in “apparent KD of K4 kissing-loop reporter” value: 213 nM for the first, 206 nM for the second.

Compared with “AGAACUGUCUGAGAUACCAGCCGAGGAGUGAUGUUCCGGCUCGACGAAACGUCGAGCCACGGCCCUUGGCAGCUCAGACAGUUCA [Omei KL Theo B SS A v1]”, “UCGCGUCUGCGAGGAUAUCGGAUUAGAGUGAUGUUCUAUAAACGCCCAGUGAUGUUGGAUGCGAUACGAGAAGGCGCUGGGCGCA [Same State FMN B GF8]” is 2.7-fold lower in “apparent KD of K4 kissing-loop reporter” value: 455 nM for the first, 167 nM for the second.

“AUCGGGAAUACGGCCGCCACUAUAGAGGCGACUACAUACCACCACAGUGAUGUUGUGCUGACCAGUAGGACCGGGUAAAAUCGAU [theeternabot_exclusion_KL_Trp_B_49]” and “GACAUACCUAUGGAGGGCCGAUCGAACAAACGAGGACCGGUACGGCCGCCACUCGUGGGCAGUGAUGUUGACCCUGGGAGGUAAG” are within 1.5-fold of each other in “apparent KD of K4 kissing-loop reporter” value: 672 nM for the first, 598 nM for the second.

Compared with “AUAAAUAAUAAUGACUGAGAGUUUGGUGAGCGAGGACCGGUACGGCCGCCACUCGUACAUGAGUGAUGUUCUUGUAUGAGUCAGA [KL-XTryp-A6 #analogue]”, “UGUCAUUGGUCGGCCGCCACUUCAAAGAGAGUGAUGUUCUUAAAGACGGAUCGAAAGAUCUGUCGAAGGACCGGGACCGAUGACU [TrypBS 17 #SwitchBubble #StaticStem]” is 2.7-fold higher in “apparent KD of K4 kissing-loop reporter” value: 105 nM for the first, 285 nM for the second.

Going from “CGCAGUGAUGUUGCGAGUUAAUUCAGGGAAGGAGCGCCACAGAUGGCAGGUAGGUCGCCCACGCAGUGAUGUUGCGUAUUCGGGU [Exclusion Arginine A GF 4]” to “AUAGGCAUAGCCCGAGUGAUGUUCGACGAUACCAGCCUCGAUAGAGGCCCUUGGCAGCGUAAAUGAUCAUGAAGCCAAGGAAUAA [whbob_Ex_Theo_A_th69]”, the “apparent KD of K4 kissing-loop reporter” value rises from 80.6 nM to 313 nM (3.9-fold).
